System: Bxb1 integrase (serine recombinase) (Mycobacterium phage Bxb1?)
Experiment: cell_activity

| Substance | activity (% mNeonGreen-positive cells) (attB on cargo recombined with genomic attP in hiPSCs, 0.01% without cargo and Bxb1 plasmids) | activity (% mNeonGreen-positive cells) (attP x attB recombination in hiPSCs, all components delivered with Cas9 RNP, 0.38% without attP ssODN template) |
| --- | --- | --- |
| Bxb1 attB site on circularised mNeonGreen cargo | 11.3 | – |
| Bxb1 attP site (58 nt, integrated at ACTR10 via ssODN) | – | 11.3 |
